For the assay, the target named is T1, flag-tagged p115 head domain (1-655) (human, UniProt O60763 1-655).
T1 sequence (looked up): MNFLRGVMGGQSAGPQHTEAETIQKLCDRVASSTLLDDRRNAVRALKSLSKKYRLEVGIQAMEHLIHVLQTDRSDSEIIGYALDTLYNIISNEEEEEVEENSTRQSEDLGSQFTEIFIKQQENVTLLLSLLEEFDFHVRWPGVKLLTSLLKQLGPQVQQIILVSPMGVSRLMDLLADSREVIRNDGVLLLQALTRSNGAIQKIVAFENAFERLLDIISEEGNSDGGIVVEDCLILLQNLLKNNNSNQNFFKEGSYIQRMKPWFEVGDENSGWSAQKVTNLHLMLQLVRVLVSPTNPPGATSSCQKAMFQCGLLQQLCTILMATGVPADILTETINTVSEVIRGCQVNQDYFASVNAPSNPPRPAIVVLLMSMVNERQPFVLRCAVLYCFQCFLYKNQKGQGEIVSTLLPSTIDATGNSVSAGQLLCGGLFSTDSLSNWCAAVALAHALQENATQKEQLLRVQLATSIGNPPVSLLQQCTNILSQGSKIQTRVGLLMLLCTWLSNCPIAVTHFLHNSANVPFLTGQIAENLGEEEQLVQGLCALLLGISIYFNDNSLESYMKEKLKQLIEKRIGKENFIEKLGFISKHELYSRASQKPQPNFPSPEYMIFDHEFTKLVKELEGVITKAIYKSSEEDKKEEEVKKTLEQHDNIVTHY
As to the kind of experiment: pull-down.

B1: Sec16A(650-776)-GFP (domain or fragment, human, UniProt O15027 650-776, looked up)
chain: ALPDASPGNLEQPPDNMETLCAPQVCPLPLNSTTEAVHMLPHAGAPPLDTVYPAPEKRPSARTQGPVKCESPATTLWAQSELPDFGGNVLLAPAAPALYVCAKPQPPVVQPPEEAMSGQQSRNPSSA
For the molecule B1, the binding result was “binds”.

Values taken from publication doi:10.1101/2025.10.16.682774 (bioRxiv, 2025).
